Laboratory results as given in patent publication US20090238886A1.
Blank lines part the entries; values can stand above or below the binder they belong to. Where no end group is shown, it is not given here. The star is where a group is joined. Dansyl = CN(C)c1cccc2c(S(=O)(=O)*)cccc12

Experiments:
[1] = target: Caco-2 cell membrane (P100) fractions; test: ELISA on coated Caco-2 P100 fraction, anti-dansyl detection; assay 4, peptide at 25 µg/ml
[2] = target: Caco-2 cell membrane (P100) fractions; test: ELISA on coated Caco-2 P100 fraction, anti-dansyl detection; assay 5, peptide at 25 µg/ml
[3] = target: Caco-2 cell membrane (P100) fractions; test: ELISA on coated Caco-2 P100 fraction, anti-dansyl detection; assay 8, peptide at 25 µg/ml
[4] = target: Caco-2 cell membrane (P100) fractions; test: ELISA on coated Caco-2 P100 fraction, anti-dansyl detection; assay 6, peptide at 25 µg/ml
[5] = target: Caco-2 cell membrane (P100) fractions; test: ELISA on coated Caco-2 P100 fraction, anti-dansyl detection; assay 7, peptide at 25 µg/ml
[6] = target: Caco-2 cell membrane (P100) fractions; test: ELISA on coated Caco-2 P100 fraction, anti-dansyl detection; assay 2, peptide at 50 µg/ml
[7] = target: Caco-2 cell membrane (P100) fractions; test: ELISA on coated Caco-2 P100 fraction, anti-dansyl detection; assay 3, peptide at 50 µg/ml
[8] = target: Caco-2 cell membrane (P100) fractions; test: ELISA on coated Caco-2 P100 fraction, anti-dansyl detection; assay 1, peptide at 20 µg/ml

- binding to P100 relative to ZElan021 (arbitrary value 1.00) [1]: 1
- binding to P100 relative to ZElan021 (arbitrary value 1.00) [2]: 1
- binding to P100 relative to ZElan021 (arbitrary value 1.00) [3]: 0.94
- binding to P100 relative to ZElan021 (arbitrary value 1.00) [4]: 1
- binding to P100 relative to ZElan021 (arbitrary value 1.00) [5]: 1.14
- binding to P100 relative to ZElan021 (arbitrary value 1.00) [6]: 1
- binding to P100 relative to ZElan021 (arbitrary value 1.00) [7]: 1
- binding to P100 relative to ZElan021 (arbitrary value 1.00) [8]: 1
B1: ZElan021, full length HAX42 (peptide)
peptide: K(Dansyl)SDHALGTNLRSDNAKEPGDYNCCGNGNSTGRKVFNRRRPSAIPT
modifications: cysteine pairing not given here

- binding to P100 relative to ZElan021 (arbitrary value 1.00) [1]: 2.02
- binding to P100 relative to ZElan021 (arbitrary value 1.00) [2]: 1.37
- binding to P100 relative to ZElan021 (arbitrary value 1.00) [4]: 1.2
- binding to P100 relative to ZElan021 (arbitrary value 1.00) [5]: 0.85
B2: ZElan091, HAX42 14 mer fragment (peptide)
peptide: K(Dansyl)PGDYNCCGNGNSTG
modifications: cysteine pairing not given here
